Data: paper PMC9798004 (Frontiers in Psychiatry, 2022)

Columns and labels:
Experiment in all cases: PathHunter β-arrestin assay
Format in all cases: cell-based
CALCR-RAMP2 = CALCR-RAMP2 (Homo sapiens, UniProt O60895+P30988); conditions: control agonist
CALCR = molecular target: T1, CALCR (Homo sapiens, UniProt P30988); conditions: screen, control agonist; U2OS, 37C, 2HR
T1 construct: purchased Eurofins DiscoverX (PathHunter gpcrMAX)
T1 sequence (P30988 25-474): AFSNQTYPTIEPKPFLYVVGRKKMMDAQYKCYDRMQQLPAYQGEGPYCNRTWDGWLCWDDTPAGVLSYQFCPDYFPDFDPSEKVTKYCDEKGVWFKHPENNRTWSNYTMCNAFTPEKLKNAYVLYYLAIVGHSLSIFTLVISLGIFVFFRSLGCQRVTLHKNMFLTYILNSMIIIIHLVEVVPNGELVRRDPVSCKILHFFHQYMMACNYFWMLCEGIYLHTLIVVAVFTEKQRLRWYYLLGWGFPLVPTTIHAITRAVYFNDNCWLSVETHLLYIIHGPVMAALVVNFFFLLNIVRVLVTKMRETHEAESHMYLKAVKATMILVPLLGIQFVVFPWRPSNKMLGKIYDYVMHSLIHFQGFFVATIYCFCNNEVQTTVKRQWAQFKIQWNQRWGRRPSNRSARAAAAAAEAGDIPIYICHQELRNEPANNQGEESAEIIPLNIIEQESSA

CALCR-RAMP3 = molecular target: T2, CALCR-RAMP3 (Homo sapiens, UniProt O60896+P30988); conditions: screen, control agonist; CHO, RT, 2HR
T2 construct: purchased Eurofins DiscoverX (PathHunter gpcrMAX)
T2 sequence (P30988 25-474): T1 sequence (P30988 25-474)
T2 sequence (O60896 24-148 partner): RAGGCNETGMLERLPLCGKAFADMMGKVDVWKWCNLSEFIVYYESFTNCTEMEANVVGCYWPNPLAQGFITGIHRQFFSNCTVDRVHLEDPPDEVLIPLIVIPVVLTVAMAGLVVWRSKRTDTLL

NPSR1b = molecular target: T3, NPSR1b (Homo sapiens, UniProt Q6W5P4); conditions: screen, control agonist; U2OS, 37C, 2HR
T3 construct: purchased Eurofins DiscoverX (PathHunter gpcrMAX)
T3 sequence (Q6W5P4 1-377 isoform Q6W5P4-4): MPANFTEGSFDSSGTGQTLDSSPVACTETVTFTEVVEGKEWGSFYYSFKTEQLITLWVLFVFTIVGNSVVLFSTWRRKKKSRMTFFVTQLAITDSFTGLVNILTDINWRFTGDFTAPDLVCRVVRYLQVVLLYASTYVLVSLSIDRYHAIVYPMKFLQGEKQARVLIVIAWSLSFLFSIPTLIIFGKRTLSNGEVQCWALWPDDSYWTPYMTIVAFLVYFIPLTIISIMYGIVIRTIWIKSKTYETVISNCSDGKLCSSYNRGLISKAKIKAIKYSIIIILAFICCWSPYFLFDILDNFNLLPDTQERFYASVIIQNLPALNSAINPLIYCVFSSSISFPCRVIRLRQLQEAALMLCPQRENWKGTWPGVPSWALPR

TACR3 = molecular target: T4, TACR3 (Homo sapiens, UniProt P29371); conditions: screen, control agonist; CHO, 37C, 2HR
T4 construct: purchased Eurofins DiscoverX (PathHunter gpcrMAX)
T4 sequence (P29371 1-465): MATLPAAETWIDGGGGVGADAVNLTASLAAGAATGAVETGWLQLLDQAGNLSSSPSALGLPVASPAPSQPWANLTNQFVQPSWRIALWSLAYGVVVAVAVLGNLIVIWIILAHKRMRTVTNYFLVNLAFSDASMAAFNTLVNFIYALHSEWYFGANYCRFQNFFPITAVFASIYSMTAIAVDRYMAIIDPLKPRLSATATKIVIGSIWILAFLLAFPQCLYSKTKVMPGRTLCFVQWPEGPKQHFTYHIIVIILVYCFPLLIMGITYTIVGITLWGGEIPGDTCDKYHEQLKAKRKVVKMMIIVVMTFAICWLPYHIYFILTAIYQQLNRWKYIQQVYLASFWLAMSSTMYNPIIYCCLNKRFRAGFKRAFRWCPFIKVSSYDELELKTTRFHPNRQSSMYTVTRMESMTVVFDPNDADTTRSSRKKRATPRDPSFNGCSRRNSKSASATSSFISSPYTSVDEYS

PTHR2 = molecular target: T5, PTHR2 (Homo sapiens, UniProt P49190); conditions: screen, control agonist; CHO, 37C, 2HR
T5 construct: purchased Eurofins DiscoverX (PathHunter gpcrMAX)
T5 sequence (P49190 25-550): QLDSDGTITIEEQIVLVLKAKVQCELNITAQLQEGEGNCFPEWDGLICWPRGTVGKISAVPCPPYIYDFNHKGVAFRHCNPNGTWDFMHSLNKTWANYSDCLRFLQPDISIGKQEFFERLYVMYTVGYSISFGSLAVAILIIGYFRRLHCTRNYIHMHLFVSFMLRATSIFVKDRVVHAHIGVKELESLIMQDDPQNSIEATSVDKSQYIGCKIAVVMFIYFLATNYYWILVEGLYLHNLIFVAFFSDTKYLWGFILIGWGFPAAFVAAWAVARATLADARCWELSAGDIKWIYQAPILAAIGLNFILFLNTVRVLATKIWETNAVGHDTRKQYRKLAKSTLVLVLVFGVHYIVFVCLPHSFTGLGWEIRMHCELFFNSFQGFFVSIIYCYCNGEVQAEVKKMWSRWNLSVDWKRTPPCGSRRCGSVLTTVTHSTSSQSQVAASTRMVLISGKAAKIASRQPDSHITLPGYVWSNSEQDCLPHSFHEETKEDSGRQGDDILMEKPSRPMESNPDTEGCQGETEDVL

PRLHR = molecular target: T6, PRLHR (Homo sapiens, UniProt P49683); conditions: screen, control agonist; CHO, 37C, 2HR
T6 construct: purchased Eurofins DiscoverX (PathHunter gpcrMAX)
T6 sequence (P49683 1-370): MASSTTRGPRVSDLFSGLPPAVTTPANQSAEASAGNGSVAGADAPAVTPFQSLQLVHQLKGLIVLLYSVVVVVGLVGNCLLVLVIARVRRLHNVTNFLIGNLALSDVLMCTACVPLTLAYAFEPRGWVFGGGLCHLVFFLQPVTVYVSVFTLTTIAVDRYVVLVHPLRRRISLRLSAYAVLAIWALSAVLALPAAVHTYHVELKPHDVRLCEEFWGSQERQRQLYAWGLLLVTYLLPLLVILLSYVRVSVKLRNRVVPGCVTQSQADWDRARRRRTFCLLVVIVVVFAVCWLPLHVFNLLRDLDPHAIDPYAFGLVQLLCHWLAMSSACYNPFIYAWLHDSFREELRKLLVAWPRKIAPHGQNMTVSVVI

BDKRB1 = molecular target: T7, BDKRB1 (Homo sapiens, UniProt P46663); conditions: screen, control agonist; CHO, 37C, 2HR
T7 construct: purchased Eurofins DiscoverX (PathHunter gpcrMAX)
T7 sequence (P46663 whole entry): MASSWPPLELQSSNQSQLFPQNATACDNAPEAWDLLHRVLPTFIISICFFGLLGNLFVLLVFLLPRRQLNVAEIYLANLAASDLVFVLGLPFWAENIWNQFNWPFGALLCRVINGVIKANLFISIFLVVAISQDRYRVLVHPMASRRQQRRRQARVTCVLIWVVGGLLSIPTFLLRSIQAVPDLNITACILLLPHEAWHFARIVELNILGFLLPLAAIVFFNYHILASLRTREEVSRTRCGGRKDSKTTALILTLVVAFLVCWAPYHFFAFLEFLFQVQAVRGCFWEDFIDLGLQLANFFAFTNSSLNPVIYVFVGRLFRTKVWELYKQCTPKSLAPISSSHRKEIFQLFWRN

P2RY6 = P2RY6 (Homo sapiens, UniProt Q15077); conditions: screen, control agonist; CHO, 37C, 2HR
Chain of P2RY6 (Q15077 whole entry): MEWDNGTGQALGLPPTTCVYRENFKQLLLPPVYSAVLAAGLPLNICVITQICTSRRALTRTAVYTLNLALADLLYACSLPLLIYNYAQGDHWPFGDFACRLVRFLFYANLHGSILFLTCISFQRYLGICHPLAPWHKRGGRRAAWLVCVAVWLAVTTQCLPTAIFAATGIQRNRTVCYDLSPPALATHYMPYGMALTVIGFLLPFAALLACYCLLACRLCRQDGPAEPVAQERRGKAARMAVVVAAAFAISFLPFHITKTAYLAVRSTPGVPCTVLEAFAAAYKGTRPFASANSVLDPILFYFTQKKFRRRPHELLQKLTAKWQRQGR
Description: Follow up experiments were prioritized based on the difference between S/N and CoV. Targets with a >5-fold difference between S/N and CoV were investigated for their potential contribution to the AMB-FUBINACA toxidrome with 10-point concentration-response curves generated in technical replicate (range 1.5–30 μM) using the EC80 of the relevant agonist, where applicable in antagonist mode. Simultaneous agonist and antagonist curves were run in parallel to ensure reliability of the assay (see Supplementary Table 2), with both RC50 and signal to background aligning with historical averages, and Z' >0.5. RC50 was estimated using a four-parameter fit (CBIS Data Analysis Suite, ChemInnovation, San Diego, CA) on normalized data.

P2RY4 = molecular target: T8, P2RY4 (Homo sapiens, UniProt P51582); conditions: screen, control agonist; CHO, 37C, 2HR
T8 construct: purchased Eurofins DiscoverX (PathHunter gpcrMAX)
T8 sequence (P51582 whole entry): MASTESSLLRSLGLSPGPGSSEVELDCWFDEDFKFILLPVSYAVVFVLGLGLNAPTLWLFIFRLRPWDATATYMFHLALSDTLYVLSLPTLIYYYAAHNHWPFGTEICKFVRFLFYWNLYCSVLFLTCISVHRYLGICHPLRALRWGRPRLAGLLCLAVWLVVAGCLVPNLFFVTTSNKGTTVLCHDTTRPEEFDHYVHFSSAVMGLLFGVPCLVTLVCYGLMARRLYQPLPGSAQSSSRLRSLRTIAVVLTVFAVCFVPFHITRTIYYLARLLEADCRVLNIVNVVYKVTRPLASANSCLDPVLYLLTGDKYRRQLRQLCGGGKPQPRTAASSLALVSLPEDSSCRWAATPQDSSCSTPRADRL

P2RY2 = molecular target: T9, P2RY2 (Homo sapiens, UniProt P41231); conditions: screen, control agonist; U2OS, 37C, 2HR
T9 construct: purchased Eurofins DiscoverX (PathHunter gpcrMAX)
T9 sequence (P41231 whole entry): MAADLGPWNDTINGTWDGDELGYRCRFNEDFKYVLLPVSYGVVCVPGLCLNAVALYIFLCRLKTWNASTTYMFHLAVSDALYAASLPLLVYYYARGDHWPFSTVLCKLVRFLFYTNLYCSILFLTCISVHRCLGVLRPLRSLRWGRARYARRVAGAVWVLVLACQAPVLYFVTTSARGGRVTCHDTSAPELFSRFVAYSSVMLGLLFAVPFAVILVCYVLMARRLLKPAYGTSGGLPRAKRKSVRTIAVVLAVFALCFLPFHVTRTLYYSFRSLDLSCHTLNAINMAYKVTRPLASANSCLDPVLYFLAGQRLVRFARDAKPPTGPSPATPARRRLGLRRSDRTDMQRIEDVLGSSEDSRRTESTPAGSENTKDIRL

P2RY12 = molecular target: T10, P2RY12 (Homo sapiens, UniProt Q9H244); conditions: screen, control agonist; CHO, RT, 2HR
T10 construct: purchased Eurofins DiscoverX (PathHunter gpcrMAX)
T10 sequence (Q9H244 whole entry, one chain of several): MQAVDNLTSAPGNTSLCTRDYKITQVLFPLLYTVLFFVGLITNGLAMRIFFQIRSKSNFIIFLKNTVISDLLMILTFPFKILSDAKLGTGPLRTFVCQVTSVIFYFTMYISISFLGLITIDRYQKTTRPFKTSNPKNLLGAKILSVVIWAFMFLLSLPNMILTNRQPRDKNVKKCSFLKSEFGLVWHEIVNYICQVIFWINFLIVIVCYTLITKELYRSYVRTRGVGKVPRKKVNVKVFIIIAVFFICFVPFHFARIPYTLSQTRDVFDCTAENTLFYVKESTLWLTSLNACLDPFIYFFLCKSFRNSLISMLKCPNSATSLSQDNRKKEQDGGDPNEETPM

P2RY1 = molecular target: T11, P2RY1 (Homo sapiens, UniProt P47900); conditions: screen, control agonist; U2OS, RT, 2HR
T11 construct: purchased Eurofins DiscoverX (PathHunter gpcrMAX)
T11 sequence (P47900 whole entry): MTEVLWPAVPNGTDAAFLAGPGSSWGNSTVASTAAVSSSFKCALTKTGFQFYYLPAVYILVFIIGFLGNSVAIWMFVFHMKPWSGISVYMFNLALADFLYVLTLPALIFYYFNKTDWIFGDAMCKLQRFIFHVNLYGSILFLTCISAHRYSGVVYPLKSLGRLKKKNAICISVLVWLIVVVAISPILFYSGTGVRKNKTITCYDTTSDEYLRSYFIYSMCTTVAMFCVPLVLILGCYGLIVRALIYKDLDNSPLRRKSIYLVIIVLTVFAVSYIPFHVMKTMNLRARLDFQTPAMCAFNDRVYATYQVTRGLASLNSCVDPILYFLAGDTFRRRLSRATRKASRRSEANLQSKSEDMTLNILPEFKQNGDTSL

PROKR2 = molecular target: T12, PROKR2 (Homo sapiens, UniProt Q8NFJ6); conditions: screen, control agonist; CHO, 37C, 2HR
T12 construct: purchased Eurofins DiscoverX (PathHunter gpcrMAX)
T12 sequence (Q8NFJ6 whole entry): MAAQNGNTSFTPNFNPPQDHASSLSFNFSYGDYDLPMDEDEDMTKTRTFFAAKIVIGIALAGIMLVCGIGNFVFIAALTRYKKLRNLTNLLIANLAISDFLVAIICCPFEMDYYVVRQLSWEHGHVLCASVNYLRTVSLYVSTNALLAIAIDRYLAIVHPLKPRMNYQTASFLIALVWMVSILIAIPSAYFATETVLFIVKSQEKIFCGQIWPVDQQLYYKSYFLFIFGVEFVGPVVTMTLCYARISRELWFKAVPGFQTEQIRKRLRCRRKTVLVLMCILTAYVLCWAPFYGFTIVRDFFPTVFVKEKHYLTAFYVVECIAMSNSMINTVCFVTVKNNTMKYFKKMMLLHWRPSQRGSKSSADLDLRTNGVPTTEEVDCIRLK

PROKR1 = molecular target: T13, PROKR1 (Homo sapiens, UniProt Q8TCW9); conditions: screen, control agonist; CHO, 37C, 2HR
T13 construct: purchased Eurofins DiscoverX (PathHunter gpcrMAX)
T13 sequence (Q8TCW9 whole entry): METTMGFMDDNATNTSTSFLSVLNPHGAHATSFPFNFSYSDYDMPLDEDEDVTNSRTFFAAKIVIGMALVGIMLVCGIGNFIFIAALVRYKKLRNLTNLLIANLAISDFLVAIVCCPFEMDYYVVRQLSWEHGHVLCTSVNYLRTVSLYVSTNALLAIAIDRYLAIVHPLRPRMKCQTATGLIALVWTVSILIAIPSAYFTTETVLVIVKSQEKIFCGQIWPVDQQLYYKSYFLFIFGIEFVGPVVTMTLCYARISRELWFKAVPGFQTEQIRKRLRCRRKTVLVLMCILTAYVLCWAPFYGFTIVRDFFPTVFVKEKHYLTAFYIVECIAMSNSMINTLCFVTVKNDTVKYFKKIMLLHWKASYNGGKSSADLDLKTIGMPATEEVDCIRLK

C5AR1 = molecular target: T14, C5AR1 (Homo sapiens, UniProt P21730); conditions: screen, control agonist; CHO, RT, 2HR
T14 construct: purchased Eurofins DiscoverX (PathHunter gpcrMAX)
T14 sequence (P21730 1-350): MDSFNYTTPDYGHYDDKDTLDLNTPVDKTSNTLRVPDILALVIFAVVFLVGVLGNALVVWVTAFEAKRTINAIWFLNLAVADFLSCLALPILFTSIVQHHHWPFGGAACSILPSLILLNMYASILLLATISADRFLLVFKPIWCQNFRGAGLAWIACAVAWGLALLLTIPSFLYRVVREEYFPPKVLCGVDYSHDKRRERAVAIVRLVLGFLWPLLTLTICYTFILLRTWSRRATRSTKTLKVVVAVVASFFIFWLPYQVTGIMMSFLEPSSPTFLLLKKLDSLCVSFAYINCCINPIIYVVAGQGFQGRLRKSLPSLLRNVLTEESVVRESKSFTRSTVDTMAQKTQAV

C5L2 = molecular target: T15, C5L2 (Homo sapiens, UniProt Q9P296); conditions: screen, control agonist; CHO, 37C, 2HR
T15 construct: purchased Eurofins DiscoverX (PathHunter gpcrMAX)
T15 sequence (Q9P296 whole entry): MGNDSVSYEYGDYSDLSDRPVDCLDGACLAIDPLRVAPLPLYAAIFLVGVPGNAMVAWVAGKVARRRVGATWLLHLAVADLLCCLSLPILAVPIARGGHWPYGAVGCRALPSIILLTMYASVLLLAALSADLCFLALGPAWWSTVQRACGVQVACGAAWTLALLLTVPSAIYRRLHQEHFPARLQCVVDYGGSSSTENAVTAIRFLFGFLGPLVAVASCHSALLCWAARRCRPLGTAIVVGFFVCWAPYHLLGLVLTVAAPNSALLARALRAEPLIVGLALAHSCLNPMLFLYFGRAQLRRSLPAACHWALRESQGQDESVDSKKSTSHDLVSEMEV

Chain of CALCR-RAMP2 (O60895 43-175 partner, one chain of several): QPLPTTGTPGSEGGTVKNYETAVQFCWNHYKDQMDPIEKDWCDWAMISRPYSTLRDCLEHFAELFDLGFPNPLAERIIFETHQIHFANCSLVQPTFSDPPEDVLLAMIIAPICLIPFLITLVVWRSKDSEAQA

Molecule: Calcitonin
- EC80 (CALCR-RAMP2; follow-up concentration-response assays): 35 nM
- EC80 (CALCR-RAMP2; screen, CHO, 37C, 2HR): 30.5 nM
- EC80 (CALCR): 37.7 nM
- EC80 (CALCR-RAMP3): 1150 nM

Molecule: Neuropeptide S (SFRNGVGTGMKKTSFQRAKS; Neuropeptide S; UniProt P0C0P6 70-89, looked up) [control agonist]
- EC80 (NPSR1b): 45.7 nM

Molecule: Substance P
- EC80 (TACR3): 80.4 nM

Molecule: TIP-39
- EC80 (PTHR2): 4.8 nM

Molecule: PrRP-31
- EC80 (PRLHR): 1.8 nM

Molecule: LDA-Bradykinin
- EC80 (BDKRB1): 4.67 nM

Molecule: O=c1ccn([C@@H]2O[C@H](COP(=O)(O)OP(=O)(O)OP(=O)(O)O)[C@@H](O)[C@H]2O)c(=O)[nH]1 [UTP]
- EC80 (P2RY6): 225 nM
- EC80 (P2RY4): 930 nM
- EC80 (P2RY2): 2580 nM

Molecule: CSc1nc(N)c2ncn([C@@H]3O[C@H](COP(=O)(O)OP(=O)(O)O)[C@@H](O)[C@H]3O)c2n1 [2-methylthio-ADP]
- EC80 (P2RY12): 1.57 nM
- EC80 (P2RY1): 41.4 nM

B1: EG VEGF: control agonist for PROKR1 and PROKR2 (protein, UniProt P58294 20-105, looked up)
Prokineticin-1: AVITGACERDVQCGAGTCCAISLWLRGLRMCTPLGREGEECHPGSHKVPFFRKRKHHTCPCLPNLLCSRFPDGRYRCSMDLKNINF
- EC80 (PROKR2): 30.2 nM
- EC80 (PROKR1): 53.3 nM

B2: Complement C5a: control agonist (protein, UniProt P01031 678-751, looked up)
C5a anaphylatoxin: TLQKKIEEIAAKYKHSVVKKCCYDGACVNNDETCEQRAARISLGPRCIKAFTECCVVASQLRANISHKDMQLGR
modifications: C5a anaphylatoxin
notes: control agonist
- EC80 (C5AR1): 3.6 nM
- EC80 (C5L2): 2.7 nM
